The values that follow are results of earlier work, collected in publication PMC3283658.

The series deals with IL-15Rβγ (Homo sapiens) (UniProt P14784).
Chain of UniProt P14784 (P14784 27-240, chain 1 of 2): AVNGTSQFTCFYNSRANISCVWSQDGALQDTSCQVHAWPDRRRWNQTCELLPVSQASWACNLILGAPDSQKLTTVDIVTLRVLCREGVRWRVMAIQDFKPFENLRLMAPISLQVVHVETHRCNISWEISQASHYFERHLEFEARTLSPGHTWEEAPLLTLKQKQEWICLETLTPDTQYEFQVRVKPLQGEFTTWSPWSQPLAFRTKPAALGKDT
Chain of UniProt P14784 (P31785 23-262, chain 2 of 2, further chain): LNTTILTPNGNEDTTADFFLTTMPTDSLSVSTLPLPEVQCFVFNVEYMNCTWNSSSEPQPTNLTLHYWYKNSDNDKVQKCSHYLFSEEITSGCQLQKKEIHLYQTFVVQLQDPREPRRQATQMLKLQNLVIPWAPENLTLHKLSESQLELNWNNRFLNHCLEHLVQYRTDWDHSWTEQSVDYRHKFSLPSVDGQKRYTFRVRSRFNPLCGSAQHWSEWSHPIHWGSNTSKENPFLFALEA

By Kd is commonly meant the free concentration of one partner at which half of the binding sites on the other are occupied at equilibrium, for simple one-to-one binding. Consider IL-15 (from UniProt P40933), for which the Kd is 4 nM.
